Data on four molecules can be found in paper PMC10776994, “The SDS22:PP1:I3 complex: SDS22 binding to PP1 loosens the active site metal to prime metal exchange” (The Journal of Biological Chemistry, 2023).

As usually defined, the Kd is a measure of binding affinity in units of concentration.

Assay [1] addresses PP1alpha 7-330 (Homo sapiens) (UniProt P62136). Briefly: SPR. Particulars: cited from earlier work.
The target in another assay is T1, PP1α_(1-330) (UniProt P62136 1-330).
T1 construct: Protein phosphatase 1 alpha catalytic subunit (PP1α), residues 1-330; also called Protein Phosphatase 1
T1 sequence (P62136 whole entry, the tested form may be a part): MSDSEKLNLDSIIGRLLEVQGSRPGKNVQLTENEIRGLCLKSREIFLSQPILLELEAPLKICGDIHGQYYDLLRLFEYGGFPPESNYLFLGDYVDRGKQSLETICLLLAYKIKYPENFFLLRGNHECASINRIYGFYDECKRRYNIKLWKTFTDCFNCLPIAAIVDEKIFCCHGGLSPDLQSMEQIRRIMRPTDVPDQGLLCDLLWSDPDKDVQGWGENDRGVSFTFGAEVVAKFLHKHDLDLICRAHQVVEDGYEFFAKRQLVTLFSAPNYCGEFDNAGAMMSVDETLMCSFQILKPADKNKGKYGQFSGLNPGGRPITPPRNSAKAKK
Briefly: NMR titration; 2D [1H,15N] HSQC of 15N-labelled I3_(1-126) free and in complex; loss of cross-peaks on binding; 283 K, 20 mM Bis-Tris pH 6.8, 500 mM NaCl, 0.5 mM TCEP. The settings on record: both partners purified.

In assay [2] the target is T2, SDS22_(56-360):PP1α_(7-330) complex (UniProt Q15435 56-360; P62136 7-330).
T2 construct: SDS22 (PPP1R7), residues 56-360; Protein phosphatase 1 alpha catalytic subunit (PP1α), residues 7-330; PP1 in this complex lacks the M1 metal; The same complex treated with EDTA (M2 metal extracted) is kept as this molecule and told apart by assay a4; the His6 tag of SDS22 was cleaved, so it is probably His6-PP1; also called SDS22:PP1; SDS22:PP1_(M2-metal-free) / metal-free …
T2 sequence (Q15435 56-360, chain 1 of 2): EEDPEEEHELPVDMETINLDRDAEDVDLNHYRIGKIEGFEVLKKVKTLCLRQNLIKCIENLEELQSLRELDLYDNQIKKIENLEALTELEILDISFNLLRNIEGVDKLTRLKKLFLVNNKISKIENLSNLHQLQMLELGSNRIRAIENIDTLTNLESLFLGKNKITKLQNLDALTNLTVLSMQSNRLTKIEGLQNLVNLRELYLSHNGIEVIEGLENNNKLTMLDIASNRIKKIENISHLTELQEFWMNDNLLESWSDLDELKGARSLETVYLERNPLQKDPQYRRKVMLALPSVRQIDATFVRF
T2 sequence (P62136 7-330, chain 2 of 2): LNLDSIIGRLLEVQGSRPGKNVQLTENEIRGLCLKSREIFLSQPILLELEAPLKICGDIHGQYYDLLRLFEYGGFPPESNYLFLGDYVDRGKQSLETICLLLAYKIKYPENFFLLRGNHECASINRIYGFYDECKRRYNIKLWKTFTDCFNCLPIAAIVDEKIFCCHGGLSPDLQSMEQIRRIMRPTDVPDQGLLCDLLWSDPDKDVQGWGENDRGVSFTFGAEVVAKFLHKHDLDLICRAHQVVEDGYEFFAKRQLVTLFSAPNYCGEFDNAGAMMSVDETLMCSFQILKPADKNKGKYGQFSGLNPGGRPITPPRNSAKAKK
The assay is described as follows: SPR; His6-PP1 constructs or SDS22_(56-360):PP1α_(7-330) captured on a Ni-NTA chip (NiHC200M), I3 and variants injected; 25 °C; 20 mM Tris pH 8.0, 500 mM NaCl, 0.5 mM TCEP, 0.05% Tween-20; one-to-one one-state or two-state fit. The settings on record: both partners purified. On the technique in general: SPR reads the build-up and loss of mass on a sensor chip optically.

Positions count from the first letter of the chain named. In names and notes the source's numbering stands.

Chain of PP1alpha 7-330 (Homo sapiens) (P62136 7-330): as the sequence (P62136 7-330, chain 2 of 2) above

Take I3 1-126 (from UniProt O60927): the Kd in assay [1] was 10 nM.

Regarding I3 27-68 (from UniProt O60927), the Kd in assay [1] is 10 nM.

B1: Inhibitor-3 (I3), I3_(1-126) (natural protein, human, UniProt O60927 1-126, looked up)
chain: MAEAGAGLSETVTETTVTVTTEPENRSLTIKLRKRKPEKKVEWTSDTVDNEHMGRRSSKCCCIYEKPRAFGESSTESDEEEEEGCGHTHCVRGHRKGRRRATLGPTPTTPPQPPDPSQPPPGPMQH
notes: 15N-labelled in the NMR experiments, unlabelled in SPR; also called FL I3; PPP1R11; source: E. coli BL21 (DE3), purified (Ni-NTA, TEV, heat 95 °C, SEC); not shown: His6, N-terminal, cleaved; MBP, N-terminal, cleaved
Regarding B1, the binding result in the assay with PP1α_(1-330) was “binds”. This molecule also yielded a Kd in assay [2] of 132 ± 5 nM.

B2: I3_(1-126) C60S/C61S/C62S (natural protein, human, UniProt O60927 1-126, looked up)
chain: B1 chain with C60S, C61S, C62S
notes: also called I3_(1-126) SSS; I3 SSS; source: E. coli BL21 (DE3), purified (Ni-NTA, TEV, heat 95 °C, SEC); not shown: His6, N-terminal, cleaved; MBP, N-terminal, cleaved
Regarding B2, the Kd in assay [2] came out at 400 ± 44 nM.
